Earlier results, collected in paper PMC6116012.
pKd: −log10 of the molar value.

How the values were obtained:
PAF15 (Homo sapiens) = PAF15 (Homo sapiens) (UniProt Q15004)
[1] = target: PAF15 extended PIP-box peptide PIP-box (Homo sapiens) (UniProt Q15004)
FEN1 (Homo sapiens) = FEN1 (Homo sapiens) (UniProt P39748)
UniProt P39748, sequence (P39748 whole entry): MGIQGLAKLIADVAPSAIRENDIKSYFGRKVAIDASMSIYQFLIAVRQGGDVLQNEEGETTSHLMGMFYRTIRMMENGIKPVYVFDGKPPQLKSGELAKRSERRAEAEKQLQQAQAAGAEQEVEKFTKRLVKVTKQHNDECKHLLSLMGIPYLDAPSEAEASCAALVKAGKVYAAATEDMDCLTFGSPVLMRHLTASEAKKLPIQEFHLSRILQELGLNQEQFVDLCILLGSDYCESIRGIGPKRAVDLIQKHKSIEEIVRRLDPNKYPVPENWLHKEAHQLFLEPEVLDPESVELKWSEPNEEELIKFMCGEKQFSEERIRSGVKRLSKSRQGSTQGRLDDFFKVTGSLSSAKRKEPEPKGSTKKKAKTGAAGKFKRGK

- pKd (PAF15 (Homo sapiens)): 5.96
- pKd [1]: 5.25
- pKd (FEN1 (Homo sapiens)): 7.22
Substance: PCNA (from UniProt P12004)
